In patent US20110020369A1 (SCHERING, published 2011):

How the values were obtained:
cTSLPR-Ig [1] = target: T1, cTSLPR-Ig (cynomolgus monkey); test: SPR BIAcore T100, cyTSLPR-hIg amine-coupled on CM5, antibody as analyte, bivalent analyte model, n = 2
T1 construct: also called cyTSLP R-hIg P749; Mam-Trans[FlagPreProTrypsin]DELTA2_NHP[Ig]
Experimental: The kinetic binding activities of the mouse anti human TSLPR antibody 13H5, chimeric anti-human TSLPR 13H5 antibody, rat anti-human TSLPR antibody 18B3, and mouse anti-human TSLPR antibody 70E8 against both human (hu) and cynomolgus monkey (cyno) TSLPR were measured by surface plasmon resonance using a BIAcore T100 system (BIAcore AB, Upsalla, Sweden). Approximately 70RUs of […] were immobilized via amine coupling chemistry onto a Sensor Chip CM5 (Research grade, BR-1006-68). HBS-EP buffer (BR-1006-69) was used as the running buffer with a flow rate of 30 μL/min. Antibodies at varying concentrations ranging from 0.01 to 600 nM were injected over the immobilized hu or cyno TSLP surfaces at a flow rate of 30 μL/min. Following each injection cycle the CM5 chip surface was regenerated using a series of solutions (10 mM Glycine pH 1.5 and 25 mM NaOH respectively) at a flow rate of 75 μL/min.
Background subtraction binding sensorgrams were used for analyzing the rate constant of association (ka) and dissociation (kd), and the equilibrium dissociation constant KD. The resulting data sets shown in Table 5 were fitted with a bivalent analyte model using the BlAevaluation software (version 1.0).

[2] = target: T2, human TSLPR on Ba/F3-hTSLPR-hIL7Ra cells (human, UniProt Q9HC73 23-371); test: cell-based or functional assay
T2 sequence (looked up): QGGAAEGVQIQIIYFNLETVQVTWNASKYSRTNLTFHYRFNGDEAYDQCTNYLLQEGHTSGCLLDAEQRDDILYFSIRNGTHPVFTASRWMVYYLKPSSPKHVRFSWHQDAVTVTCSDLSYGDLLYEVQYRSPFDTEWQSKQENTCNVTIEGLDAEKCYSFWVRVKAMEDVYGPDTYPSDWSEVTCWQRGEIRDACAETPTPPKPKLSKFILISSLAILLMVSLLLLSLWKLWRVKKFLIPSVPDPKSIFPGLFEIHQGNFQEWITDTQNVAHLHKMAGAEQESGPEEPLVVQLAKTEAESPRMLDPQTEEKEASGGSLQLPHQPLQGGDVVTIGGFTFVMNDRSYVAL

cTSLPR-Ig [3] = target: T1, cTSLPR-Ig; test: ELISA, plate coated with TSLPR 50 ng/well, HRP goat anti-mouse detection
Experimental: (§1) The ELISA measures the EC50 of certain mouse anti-TSLPR antibodies generated according to Example 2 are reported on Table 4. The antibodies were purified from hybridoma supernatants, and his-hTSLPR or cTSLPR-Ig was used to determine binding affinity.
(§2) Coating of plates was performed as follows: TSLPR (50 ng per well) in PBS was incubated at 4° C. overnight. Plates were washed with 1 cycle (3 washes/cycle) on a Molecular Devices plate washer. Antibody was then titrated across a row of eight wells in the range of 3000 ng/mL to […] using serial 3-fold dilutions and incubated for 60 min. at 25° C. Plates were washed for 1 cycle, HRP-goat anti-mouse) (1:2,000 dilution) was added at 0.05 mL/well and incubated for 60 min at 25° C. Plates were washed for 1 cycles. ABTS substrate was added at 0.05 mL/well and incubated 10 min at 25 C. Plates read at) or A_{405 nm}. [0223]

hTSLPR-ECTO-His = target: T3, hTSLPR-ECTO-His (human); test: as above
T3 chain: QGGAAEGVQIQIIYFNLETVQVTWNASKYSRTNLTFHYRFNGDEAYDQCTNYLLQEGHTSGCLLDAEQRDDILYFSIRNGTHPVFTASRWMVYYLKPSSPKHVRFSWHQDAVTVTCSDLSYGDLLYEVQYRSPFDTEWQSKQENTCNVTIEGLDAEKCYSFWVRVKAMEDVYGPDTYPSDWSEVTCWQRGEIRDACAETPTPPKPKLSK
Experimental: as §1, §2

[4] = target: cynomolgus TSLPR on Ba/F3-cTSLPR-cIL7Ra cells (cynomolgus monkey); test: cell-based or functional assay

B1: rat anti-human TSLPR antibody 18B3 (antibody, V domains shown)
VH: EVQLVESGGGLVQPGRSLRLSCVASGFTFNNYWMTWVRQAPGKGLEWVASITDTSGRTYYPDSVKGRFTISRDHAKSTLYLQMNSLRPEDTATYYCTKTLGGIPRDWGQGVMVTVSS
VL: NIQLTQSPSLLSASVGDRVTLSCKGSQNINNYLAWYQQKLGEAPKLLIFKTNILQTGIPLRFSGSGSGTDYTLTISSLHCEDLATYYCYQFNNGFTFGPGTKLELKR
notes: Rat monoclonal antibody; also called r18B3; LB1.18B3
Kd (cTSLPR-Ig [1]): 10.1 nM
koff (cTSLPR-Ig [1]): 0.0078 s⁻¹
kon (cTSLPR-Ig [1]): 770000 M⁻¹ s⁻¹
Avg IC50, Ba/F3-huTSLPR proliferation [2]: 0.304 µg/mL
IC50 Assay I, Ba/F3-huTSLPR proliferation [2]: 0.318 µg/mL
IC50 Assay II, Ba/F3-huTSLPR proliferation [2]: 0.259 µg/mL
IC50 Assay III, Ba/F3-huTSLPR proliferation [2]: 0.335 µg/mL

B2: mouse antibody 54C11 (antibody, mouse IgG2a, V domains shown)
VH: QVQLQQSGPEVVRPGVSVKISCKGSGFTFTDYAIHWVRQSHAKSLEWIGIIRPSNGNTNCDQKFKDKATMTVDKSSSTAYLDLARLTSEDSAIYYCSRSRVWGGSLAYWGQGTLVTVSA
VL: DIVMTQSQKFMSTSVGDRVSVTCKASQNVGTNIAWYQQKPGQSPEALIYSASYRYSGVPDRFTGSGSGTDFTLTITNVQSEDLAEYFCQQYKSYPWTFGGGTKLEIKR
notes: Mouse IgG2a/kappa from hybridoma; also called m54C11; LB55.54C11.3G11
EC50 (cTSLPR-Ig [3]): 0.153 µg/mL
EC50 (hTSLPR-ECTO-His): 0.0059 µg/mL
Avg IC50, Ba/F3-huTSLPR proliferation [2]: 0.0203 µg/mL
IC50 Assay I, Ba/F3-huTSLPR proliferation [2]: 0.0195 µg/mL
IC50 Assay II, Ba/F3-huTSLPR proliferation [2]: 0.0188 µg/mL
IC50 Assay III, Ba/F3-huTSLPR proliferation [2]: 0.0227 µg/mL

B3: mouse antibody 61C11 (antibody, mouse IgG2a, V domains shown)
VH: QAYLQQSGAELVRSGASVKMSCKASGYTFTSYNLHWIKLTPGQGLEWIGYIYPGLNGTLYNQKFRGKATLTADTSSSTAYMQISSLTSEDSAVYFCARSDYGKAWFAYWGRGTLVTVSA
VL: DILLTQSPAILSVSPGERVSFSCRASQSIATKIHWYQQRTDHSPRLLIQLGSESISGIPSRFSGSGSGTDFTFTINSVESEDIAVYYCQQSNRYPYTFGGGTKLEVKR
notes: Mouse IgG2a/kappa from hybridoma; also called m61C11; LB55.61C11.2B1
EC50 (cTSLPR-Ig [3]): 0.26 µg/mL
EC50 (hTSLPR-ECTO-His): 0.026 µg/mL
Avg IC50, Ba/F3-huTSLPR proliferation [2]: 0.162 µg/mL
IC50 Assay I, Ba/F3-huTSLPR proliferation [2]: 0.174 µg/mL
IC50 Assay II, Ba/F3-huTSLPR proliferation [2]: 0.139 µg/mL
IC50 Assay III, Ba/F3-huTSLPR proliferation [2]: 0.172 µg/mL
Avg IC50, Ba/F3-cyTSLPR proliferation [4]: > 10 µg/mL
IC50 Assay I, Ba/F3-cyTSLPR proliferation [4]: ~13 µg/mL
IC50 Assay II, Ba/F3-cyTSLPR proliferation [4]: ~18 µg/mL
IC50 Assay III, Ba/F3-cyTSLPR proliferation [4]: ~15 µg/mL

B4: mouse antibody 4G8 (antibody, mouse IgG1, V domains shown)
VH: QVQLKQSGPGLVQPSQSLSITCTVSGFSLTIYGLHWVRQSPGKGLEWLGVIWRGGSTDYNAAFMSRLRITKDNSKSQVFFKMDSLQADDTAIYYCAKPYYDYDGNWYFDVWGAGTTVTVSS
VL: DIVMTQSQKFMSTSVGDRVSVTCKASQNVGTNVAWYQKKSGQSPKPLIYSASSHCSEVPDRFTGSGSGTDFTLTINNVQSEDLAEYFCQQYNRYPLTFGTGTKLEVRR
notes: Mouse IgG1/kappa from hybridoma; also called m4G8; LB55.4G8.2A6
EC50 (cTSLPR-Ig [3]): 0.081 µg/mL
EC50 (hTSLPR-ECTO-His): 0.0059 µg/mL
Avg IC50, Ba/F3-huTSLPR proliferation [2]: 0.262 µg/mL
IC50 Assay I, Ba/F3-huTSLPR proliferation [2]: 0.292 µg/mL
IC50 Assay II, Ba/F3-huTSLPR proliferation [2]: 0.202 µg/mL
IC50 Assay III, Ba/F3-huTSLPR proliferation [2]: 0.291 µg/mL

B5: mouse antibody 49A5 (antibody, mouse IgG1, V domains shown)
VH: QVQLKQSGPGLVQPSQSLSITCTVSGFSLTTYGVHWVRQSPGKGLEWLGVIWRGGNTAYNPAFMSRLSITKDNSKSQVFFKMNSLQADDTAIYHCAKKSYYGYHAMGYWGQGTSVTVSS
VL: DIQMTQTTSSLSASLGDRVTINCRASQDISNYLNWYQQNPDGTVKLLIYYTSRLHSGVPSRFSGSGSGTDYSLTISNLEQEDIATYFCQQANTLPWTFGGGTKLEIKR
notes: Mouse IgG1/kappa from hybridoma; also called m49A5; LB55.49A5.2F9
EC50 (cTSLPR-Ig [3]): 0.0059 µg/mL
EC50 (hTSLPR-ECTO-His): 0.0417 µg/mL
Avg IC50, Ba/F3-huTSLPR proliferation [2]: 0.127 µg/mL
IC50 Assay I, Ba/F3-huTSLPR proliferation [2]: 0.143 µg/mL
IC50 Assay II, Ba/F3-huTSLPR proliferation [2]: 0.108 µg/mL
IC50 Assay III, Ba/F3-huTSLPR proliferation [2]: 0.131 µg/mL
Avg IC50, Ba/F3-cyTSLPR proliferation [4]: 0.231 µg/mL
IC50 Assay I, Ba/F3-cyTSLPR proliferation [4]: 0.202 µg/mL
IC50 Assay II, Ba/F3-cyTSLPR proliferation [4]: 0.246 µg/mL
IC50 Assay III, Ba/F3-cyTSLPR proliferation [4]: 0.246 µg/mL

B6: chimeric anti-human TSLPR 13H5 antibody (antibody, V domains shown)
VH: QVLLKQSGPSLVQPSQSLSITCTVSGFSLSRYGVHWVRQSPGKGLEWLGVIWRSGSTDYNAAFMSRLSITQDNSKSQVFFNMNSLQSDDSAIYYCAKKAFYVMDYWGQGTSVTVSS
VL: DIQMTQTTSSLSASLGDRVTISCRASQDISIYLNWYQQKPDGTVKLLIYYTSRLHSGVPSRFSGSGSGTNFSLTITNLEEEDIATYFCQQGNTLPWTFGGGTKLEIKR
notes: also called chim 13H5; Chimeric 13H5; not shown: human IgG1 heavy chain constant region (CH1-hinge-CH2-CH3); human kappa light chain constant domain (CL domain)
Kd (cTSLPR-Ig [1]): 0.374 nM
koff (cTSLPR-Ig [1]): 0.000172 s⁻¹
kon (cTSLPR-Ig [1]): 460000 M⁻¹ s⁻¹

B7: mouse anti-human TSLPR antibody 70E8 (antibody, mouse IgG1, V domains shown)
VH: DVQLQESGPDLVKPSQSLSLTCTVTNYSITSGYSWPWIRQFPGNKLEWLGYIHSSGRTNYNPSLKSRISITRDTSKNQFFLQLNSVTPEDTATYYCARSQLGLVFFAYWGQGTLVTVSA
VL: DIVMTQSQKFMSTSVGDRVSVTCKASQSVGANVAWYQQIPGHSPKVLIYSASYRFSGVPDRFTGSGSGTDFTLTISNVQSEDLAEYFCQQYNSYPYTFGGGTKLEIRR
notes: Mouse IgG1/kappa from hybridoma; also called m70E8; LB55.70E8.1A8
EC50 (cTSLPR-Ig [3]): 0.958 µg/mL
Avg IC50, Ba/F3-huTSLPR proliferation [2]: 0.0446 µg/mL
IC50 Assay I, Ba/F3-huTSLPR proliferation [2]: 0.0442 µg/mL
IC50 Assay II, Ba/F3-huTSLPR proliferation [2]: 0.0489 µg/mL
IC50 Assay III, Ba/F3-huTSLPR proliferation [2]: 0.0407 µg/mL
Avg IC50, Ba/F3-cyTSLPR proliferation [4]: > 50 µg/mL
IC50 Assay I, Ba/F3-cyTSLPR proliferation [4]: ~55 µg/mL
IC50 Assay II, Ba/F3-cyTSLPR proliferation [4]: ~90 µg/mL
IC50 Assay III, Ba/F3-cyTSLPR proliferation [4]: ~90 µg/mL

B8: mouse antibody 54A11 (antibody, mouse IgG2a, V domains shown)
VH: EVQLQQSGPELVKPRASVKISCKASGYSFTGYYIHWVKQSHVKSLEWIGRINPYNGATIYNPNFKDKASLTVDKSSSTAFMEVHSLTSEDSAVYYCARSYGYVNYFDYWGQGTTLTVSS
VL: EIVLTQSPATLSVTPGDSVSLSCRASQSISNNLHWYHQKSHESPRLLIKFGFQSISGIPSRFSGSGSGTDFTLSINSVETEDFGMYFCQQTNSWLTFGAGTKLELKR
notes: Mouse IgG2a/kappa from hybridoma; also called m54A11; LB55.54A11.3D6
EC50 (cTSLPR-Ig [3]): 0.0075 µg/mL
EC50 (hTSLPR-ECTO-His): 0.0458 µg/mL
Avg IC50, Ba/F3-huTSLPR proliferation [2]: 0.178 µg/mL
IC50 Assay I, Ba/F3-huTSLPR proliferation [2]: 0.211 µg/mL
IC50 Assay II, Ba/F3-huTSLPR proliferation [2]: 0.132 µg/mL
IC50 Assay III, Ba/F3-huTSLPR proliferation [2]: 0.191 µg/mL
Avg IC50, Ba/F3-cyTSLPR proliferation [4]: 0.138 µg/mL
IC50 Assay I, Ba/F3-cyTSLPR proliferation [4]: 0.125 µg/mL
IC50 Assay II, Ba/F3-cyTSLPR proliferation [4]: 0.153 µg/mL
IC50 Assay III, Ba/F3-cyTSLPR proliferation [4]: 0.137 µg/mL
